The record followed here is US20210261685A1 (Alector, published 2021).

In test [1] the target is T1, human MerTK endogenously expressed on cells (SK-MEL-5 cells; human macrophages) (human, UniProt Q12866 21-999).
T1 sequence: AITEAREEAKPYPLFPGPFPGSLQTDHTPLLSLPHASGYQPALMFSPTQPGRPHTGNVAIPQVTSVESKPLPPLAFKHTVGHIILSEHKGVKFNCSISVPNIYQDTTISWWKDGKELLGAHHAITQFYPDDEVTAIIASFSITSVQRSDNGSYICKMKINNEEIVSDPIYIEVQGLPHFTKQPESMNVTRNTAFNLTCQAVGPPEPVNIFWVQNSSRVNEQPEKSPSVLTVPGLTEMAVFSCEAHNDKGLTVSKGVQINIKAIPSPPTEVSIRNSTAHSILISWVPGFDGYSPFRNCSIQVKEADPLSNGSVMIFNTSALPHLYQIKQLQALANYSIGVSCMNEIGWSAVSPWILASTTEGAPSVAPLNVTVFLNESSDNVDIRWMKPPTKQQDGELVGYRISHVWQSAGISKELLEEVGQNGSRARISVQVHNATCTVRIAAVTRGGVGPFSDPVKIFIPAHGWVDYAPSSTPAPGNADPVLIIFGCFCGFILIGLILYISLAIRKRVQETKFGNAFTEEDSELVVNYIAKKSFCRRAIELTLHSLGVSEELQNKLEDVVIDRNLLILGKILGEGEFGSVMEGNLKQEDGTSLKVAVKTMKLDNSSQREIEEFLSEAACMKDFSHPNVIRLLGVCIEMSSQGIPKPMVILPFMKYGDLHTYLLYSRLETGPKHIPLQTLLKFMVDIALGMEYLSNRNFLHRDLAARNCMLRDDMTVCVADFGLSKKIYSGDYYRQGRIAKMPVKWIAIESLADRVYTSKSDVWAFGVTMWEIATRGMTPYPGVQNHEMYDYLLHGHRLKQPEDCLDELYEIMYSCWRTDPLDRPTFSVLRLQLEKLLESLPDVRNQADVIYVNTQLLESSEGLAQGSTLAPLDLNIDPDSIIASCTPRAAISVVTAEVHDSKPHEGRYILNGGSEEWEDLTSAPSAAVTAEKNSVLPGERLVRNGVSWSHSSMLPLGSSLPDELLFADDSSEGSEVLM
Description: cell-based or functional assay.

Test [2] addresses T1, human MerTK endogenously expressed on …. Description: flow cytometry on SK-MEL-5 cells, Prism fit. The protocol:
To determine whether recombinant anti-human MerTK antibodies of the present disclosure bind to human MerTK endogenously expressed on SK-MEL-5 cells and to CHO cells overexpressing mouse MerTK (CHO-muMerTK OE cells), the following experiments were performed. SK-MEL-5 cells and CHO-muMerTK OE cells were plated at 40,000 cells/well. Anti-MerTK antibodies were titrated to a final concentration range of between 66.6 nM to 4 pM and then added to the cells. After 30 min on ice, cells were washed and then stained with APC-conjugated mouse anti-human Kappa antibody (Southern Biotech Cat #9230-11, Birmingham, Ala.) and a viability die (Life Technologies) in the presence of Fc block solution on ice for 30 minutes, and then washed twice with cold FACS buffer (2% FBS in PBS). Cells were fixed with 4% paraformaldehyde in PBS. Stained cells were acquired on a BD FACS Canto II cytometer and the mean fluorescence intensity (MFI) was calculated with FlowJo software and K value was calculated with Prism software. […] A lower Kd value reflects higher binding of antibody to cells.

Test [3] addresses T2, Recombinant human MerTK human Fc Chimera protein (R&D systems, Cat #391-MR-100) (human, UniProt Q12866 26-499, limits assumed).
T2 construct: Bought; also called recombinant human MerTK protein; MerTK-Fc
T2 sequence: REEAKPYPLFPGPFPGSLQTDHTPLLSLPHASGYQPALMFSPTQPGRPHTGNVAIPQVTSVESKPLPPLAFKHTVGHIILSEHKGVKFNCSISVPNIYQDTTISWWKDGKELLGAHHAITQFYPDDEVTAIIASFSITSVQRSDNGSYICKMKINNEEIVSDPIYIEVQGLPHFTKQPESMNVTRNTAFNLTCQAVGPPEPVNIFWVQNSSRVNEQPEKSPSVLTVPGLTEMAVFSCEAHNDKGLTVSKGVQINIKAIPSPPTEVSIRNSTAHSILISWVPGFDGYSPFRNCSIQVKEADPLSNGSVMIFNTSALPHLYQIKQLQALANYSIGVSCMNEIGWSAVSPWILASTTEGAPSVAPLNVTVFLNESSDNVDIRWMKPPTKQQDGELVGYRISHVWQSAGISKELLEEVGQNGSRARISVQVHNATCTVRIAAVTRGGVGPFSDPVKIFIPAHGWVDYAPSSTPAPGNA
In words: competition ELISA, His-Gas6 on captured MerTK-Fc. How it is done: Rabbit anti-human IgG polyclonal antibody (Jackson ImmunoResearch, Cat #309-005-008) was captured to a high-protein binding plate at 2 μg/ml 4° C. overnight. After washing with 0.05% Tween20 in PBS three times, 5% BSA in PBS was added for 1 hour. Recombinant human MerTK human Fc Chimera protein (R&D systems, Cat #391-MR-100) was added at 2 μg/ml for 1 hour and the plates were then washed. Anti-MerTK antibodies were titrated to final concentration range of between 66.6 nM to 4 pM and then 40 μl of serially diluted antibody and 40 μl of His tag-conjugated recombinant Gas6 protein (R&D systems, Cat #885-GSB-050) at 3 μg/ml or His tag-conjugated recombinant ProS protein (R&D systems, Cat #9489-PS-100) at 20 μg/ml. After a further incubation for 1 hour, plates were washed and incubated for 1 hour with HRP-conjugated anti-6×His tag antibody (Abcam, Cat #ab1187). Plates were then washed and an HRP substrate (TMB) was used to develop the plates. After sufficient color change was observed, the reaction was stopped by adding 50 μl 2N H₂SO₄ and the OD was measured using a spectrophotometer (BioTek).
From these experiments, IC50 values [nM] were determined using OD450 values obtained from the dose-response curves analyzed with Prism software. Table 14 and Table 15 show IC50 values determined for anti-MerTK antibody blocking of Gas6 ligand binding and ProS ligand binding to MerTK. […] Dashes indicate lack of significant blocking; “n.a.” indicates data not available.
(In general: In an ELISA, binding on a coated surface is turned into a signal by an enzyme label.)

The target of test [4] is T2, Recombinant human MerTK human Fc …. In words: competition ELISA, His-ProS on captured MerTK-Fc. The essentials:
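Blocking IC50 (nM) comes from OD450 curves after TMB development of bound His-tagged ligand detected by HRP-anti-His. Ligand (His-Gas6 at 3 μg/ml, or His-ProS at 20 μg/ml) and titrated antibody (66.6 nM to 4 pM final) were incubated 1 h on MerTK-Fc (2 μg/ml) held by an anti-human IgG capture antibody.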

B1: MTK-12 (antibody, human IgG1, V domains shown)
VH: QVQLQQSGPQLVRPGASVKISCKASGYSFTSHWMHWVKQRPGQGLEWIGMIDPSDGESRLNQKFKDKATLTVDKSSSTAYMQLSSPTFEDSAVYYCARGIYYYGITYAMDYWGQGTSVTVSS
VL: QIVLTQSPAIMSASPGEKVTMTCSASSSVSYMYWYQQKPRSSPRLLIYDTSNLASGVPVRFSGSGSGTSYSLTISRMEAEDAATYYCQQWSSYPLTFGAGTKLELK
What is called Kd is the equilibrium constant for the complex coming apart. Read a low Kd as tighter binding. For orientation: IC50 means the concentration at which inhibition is half-maximal. In the case of B1, the “Gas6-mediated pAKT activity, average IC50, human M2c macrophages” value (“Gas6-mediated pAKT activity” for short) in test [1] amounted to 1.28 nM. Also, in test [2], binding was put at a Kd of 0.009 nM. For the same molecule, the values for the IC50 in test [3] and in test [4] were 26 nM and 3.36 nM, respectively.

B2: MTK-15 (antibody, human IgG1, V domains shown)
VH: QIQLVQSGPELKKPGETVKISCKASGYTFTNYGVHWVKQAPGKGLKWMGWINTYTGEPTYADDFKGRFAFSLETSASTAYLQINNLKNEDMATYFCARGNRYAYMDYWGQGTSVTVSS
VL: QIVLSQSPAILSASPGEKVTMTCRASSSVSYMHWYQQKSGSSPKPWIYATSNLASGVPARFSGSGSGTSYSLTISRVEAEDAATYYCQQWSSNPRTFGGGTKLEIK
In the case of B2, in test [1], the “Gas6-mediated pAKT activity” value was 2.8 nM. The affinity in test [2], expressed as Kd, was 0.19 nM. The IC50 in test [4] was 4.2 nM.

B3: MTK-16 (antibody, human IgG1, V domains shown)
VH: LIQLVQSGPELKKPGETVKISCKASGYTFTNHGMNWVKQDPGKGLKWMGWINTYTGEPTYADDFKGRFVFSMETSASAAFLQINNLKNEDTATYFCARKGVTAARYFDYWGQGTTLTVSS
VL: DIVMTQSPKFMSTSVGDRVSITCKASQNVRTAVAWYKKKPGQSPKALINLASNRHTGVPDRFTGSGSGTDFTLTISNVQSEDLADYFCLQHWNYPLTFGGGTKLEIK
Turning to B3, the “Gas6-mediated pAKT activity” value in test [1] was found to be 7.74 nM. In test [2], the Kd came to 1.66 nM. In addition, the IC50 in test [3] was 6.32 nM; in test [4] it was 8.59 nM.

B4: MTK-17 (antibody, human IgG1, V domains shown)
VH: QIQLVQSGPELKKPGETVKISCKASGYTFTNFGMNWVKQAPGKGLKWMGWINTYTGEPTYADDFKGRFAFSLETSASTAYLQINNLKNEDTATYFCSRGAVLRAGAMDCWGQGTSVTVSS
VL: DIQMTQSSSYLSVSLGGRVTITCKASDHINNWLAWYQQKPGNAPRLLISGATSLETGVPSRFSGSGSGKDYTLSITSLQTEDVATYYCQQYWSTPRTFGGGTKLEIK
In the case of B4, the “Gas6-mediated pAKT activity” value in test [1] turned out to be 3.42 nM. This molecule also registered a Kd in test [2] of 12.7 nM. The results for the IC50 in test [3] and in test [4] were 14.5 nM and 8.35 nM, respectively.

B5: MTK-03 (antibody, human IgG1, V domains shown)
VH: DVQLQESGPGLVKPSQSLSLTCSVTGYSITSGYYWNWIRQFPGNTLEWMGYMSFDGDNKFNPSLKNRISITRDTSKNQFFLRLNSVTTEDTATYYCARGGYNYGSTEANWGQGTLVTVSA
VL: QIVLTQSPAIMSAFPGEKVTITCSASSSVNYMHWFQQKPGTSPKLWIYSTSNLASGVPARFSGSGSGTSYSLTISRMEAEDAATYYCQQRSSYPFTFGSGTKLEIK
With B5, the “Gas6-mediated pAKT activity” value in test [1] turned out to be 19 pM. In addition, the equilibrium dissociation constant (Kd) in test [2] was 2.64 nM. Also, the IC50 amounted to 8.53 nM in test [3] and 3.65 nM in test [4].

B6: MTK-07 (antibody, human IgG1, V domains shown)
VH: DVQLQESGPGLVKPSQSLSLTCSVTGYSITSGYYWNWIRQFPGNTLEWMGYMSFDGDNKFNPSLKNRISITRDTSKNQFFLRLNSVTTEDTATYYCARGGYNYGSTEANWGQGTLVTVST
VL: QIVLTQSPAIMSAFPGEKVTITCSASSSVTYMHWFQQKPGTSPKLWIFSTSNLASGVPARFSGSGSGTSYSLTISRMEAEDAATYYCQQRSSYPFTFGSGTKLEIK
Consider B6, for which the “Gas6-mediated pAKT activity” value in test [1] came out at 0.371 nM. For the same molecule, the Kd in test [2] turned out to be 3.21 nM. Further, the 50% inhibitory concentration (IC50) came to 7.97 nM in test [3] and 3.27 nM in test [4].

B7: MTK-11 (antibody, human IgG1, V domains shown)
VH: QVQLKQSGPGLVQPSQSLSITCTVSGFSLTDYGVHWVRQSPGKGLEWLGVIWSSGTTDYNEAFISRLSISKDNSKSHVFFKMNSLQAIDTAIYYCARKGHDPYAMDYWGQGTSVTVSS
VL: QIVLTQSPAIMSASLGERVTMTCTASSSISSSYFHWYQQKPGSSPKLWIYSTSNLPSGVPARFSGSGSGTSYSLTISSMEAEDAATYYCHQYYRSPLTFGAGTKLELK
On to B7, for which the “Gas6-mediated pAKT activity” value in test [1] was 2.63 nM. For the same molecule, binding in test [2] was put at a Kd of 3.54 nM. Also, the IC50 in test [4] was 24.2 nM.

B8: MTK-20 (antibody, human IgG1, V domains shown)
VH: QIQLVQSGPELKKPGETVKISCKASGYTFTNYGMTWVKQAPGKGLKWMGWINTYTGEPTYADDFKGRFALSLETSASTAYLQINNLKNEDTATYFCARGGGRLGLRPLDYWGQGTTLTVSS
VL: DIQMTQTTSSLSASLGDRVTISCRASQDINNYLNWYQQKPDGTVKLLIYYTSRLHSGVPSRFSGSGSGTDYSLTISNLEQEDIATYFCQQGNTLPWTFGGGTKLEIK
B8: the “Gas6-mediated pAKT activity” value in test [1] was found to be 1.48 nM. This molecule also displayed a Kd in test [2] of 0.11 nM. In addition, the IC50 in test [3] came out at 4.96 nM; in test [4], 5.16 nM.

B9: MTK-18 (antibody, human IgG1, V domains shown)
VH: QIQLVQSGPELKKPGETVKISCKASGYTFTHYGMTWVKQAPGKGLKWMGWINTYTGEPTYADDFKGRFAFSLETSASTAYLQINNLKNEDTATYFCARGGGQLGLRPLDYWGQGTTLTVSS
VL: DIQMTQTTSSLSASLGDRVTFSCRASQAISNYLNWYQQKPDGTVKLLIYYTSRLHSGVPSRFSGSGSGTDYSLTISNLEQEDIATYFCQQGNTLPWTFGGGTKLEIK
Take B9: the “Gas6-mediated pAKT activity” value in test [1] turned out to be 1.3 nM. This molecule also yielded a dissociation constant (Kd) in test [2] of 0.38 nM. Also, the concentration for half-maximal inhibition (IC50) is 4.22 nM in test [3] and 4.76 nM in test [4].
